In the supplement of paper PMC10724198:
± gives the standard deviation of the averaged measurements.

System: Saccharomyces cerevisiae
Test: protein stability index of tFT-peptide fusion (C-terminal peptide) (PSI (0-1 scale)); higher = more stable (slower turnover)
Settings: genetic background: wild type; temperature: 30 C
Description: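 Multiplexed protein stability (MPS) profiling in S. cerevisiae. Random 12-aa peptides (tFT-X12 library) are fused to the C-terminus of a sfGFP-mCherry tandem fluorescent timer, after mCherry and a GGGS linker. Cells are FACS-sorted into 8 mCherry/sfGFP bins and deep-sequenced. The protein stability index (PSI) is the read-weighted bin average, scaled from 0 (unstable) to 1 (stable). Only peptides with >10 reads are reported; cells were grown at 30 °C in SC-His with glucose.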
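Also: PSI is a weighted mean of sequencing reads over stability bins, variants kept only with over 10 reads, mCherry proximal and sfGFP distal, peptide attached via GGGS linker.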

Row | Sequence | protein stability index
1 | VGGEGSAGLQCR | 0.6956 ± 0.0037
2 | LVALTSVLSALF | 0.698 ± 0.069
3 | AVRRRGGLSVGV | 0.654 ± 0.036
4 | LLPPFPPPSLFS | 0.667 ± 0.01
5 | PRSPTPPPSYSP | 0.715 ± 0.11
6 | IKGVEKDKKTQK | 0.747 ± 0.045
7 | CEEQQPGFKPLL | 0.706 ± 0.04
8 | KEQESKAISYPV | 0.718 ± 0.035
9 | TLDKGRFSPAHL | 0.754 ± 0.049
10 | AKSKVAGNVGGD | 0.669 ± 0.017
11 | YVGLAAGEVGMG | 0.661 ± 0.02
12 | KKNKRMKVREKK | 0.609 ± 0.034
13 | PSAPFLPSPPPV | 0.661 ± 0.021
14 | GRYLRRDLVGVF | 0.606 ± 0.051
15 | IPTVSLLHLPPV | 0.699 ± 0.047
16 | SGGGGWVVGGVA | 0.663 ± 0.011
17 | LHCLGFWRVMYG | 0.6538 ± 0.0011
18 | PLGPLLSPLSPP | 0.743 ± 0.014
19 | GIEKEADRVRKN | 0.659 ± 0.07
20 | AFLDISIPSSSL | 0.6857 ± 0.0063
21 | RIHAVINLLMND | 0.651 ± 0.039
22 | STGVGGPCGRTS | 0.617 ± 0.055
23 | ITSALRYLSAVG | 0.656 ± 0.022
24 | LIPLSLPSCPLS | 0.69 ± 0.085
25 | QVYGEWASAGWG | 0.718 ± 0.04

Row | Sequence | protein stability index
26 | FYFRFPGFLAGF | 0.5687 ± 0.0052
27 | ERGEEGGRERRR | 0.7 ± 0.0073
28 | SLLFLRFLFSTP | 0.705 ± 0.0086
29 | WPLPRPEFCGAP | 0.6316 ± 0.0011
30 | KQNAHKKINKYE | 0.75 ± 0.02
31 | LSSGCSVKLRAQ | 0.67 ± 0.015
32 | KTTSRIKEIIQK | 0.606 ± 0.017
33 | IVNDEHVHTYTR | 0.743 ± 0.013
34 | TPATRCLASDSR | 0.766 ± 0.11
35 | SPETSSILLLSF | 0.612 ± 0.0035
36 | PLPFPFPLCSQS | 0.64 ± 0.1
37 | ACFVVDHGPLHL | 0.695 ± 0.031
38 | VVSWLGAGYSVR | 0.7 ± 0.071
39 | RFPLLAPPRPLP | 0.7318 ± 0.0043
40 | ALLLTLTCGLFF | 0.521 ± 0.019
41 | RREGWYTNRERG | 0.668 ± 0.013
42 | DRLGDCRKPRPF | 0.657 ± 0.099
43 | GGAAGRRAAEVG | 0.694 ± 0.013
44 | GQWGGATLGLVG | 0.777 ± 0.021
45 | SLPKSSLFAPHL | 0.715 ± 0.023
46 | VGGAWRMGRGGG | 0.658 ± 0.018
47 | CSSVTEFWWAVF | 0.766 ± 0.1
48 | AGLGHVPGEHSV | 0.613 ± 0.033
49 | TTKKMVRIVSTV | 0.571 ± 0.052
50 | PKYYTTTDRLRV | 0.622 ± 0.02

Row | Sequence | protein stability index
51 | RSCPGSWFRLSV | 0.699 ± 0.12
52 | FSWDRIKQCSSV | 0.7094 ± 0.0035
53 | LFSSLNLFSSRD | 0.7355 ± 0.0033
54 | YPSRSPFLSLSC | 0.683 ± 0.028
55 | AGGTMVVVVRSC | 0.51175 ± 3.2e-05
56 | PLSPRLPRRRLP | 0.681 ± 0.017
57 | LYSPLLCRLPFP | 0.666 ± 0.045
58 | SGLPVPFSALRS | 0.718 ± 0.049
59 | SSQRPRCTFVLL | 0.684 ± 0.031
60 | VICRGGHVLLES | 0.72 ± 0.098
61 | YGVEWGAESNLY | 0.8019 ± 0.0068
62 | VFVPARGAFHGL | 0.69 ± 0.018
63 | CPSRCGLRAPYL | 0.706 ± 0.017
64 | WSLGLVGRGFWG | 0.73 ± 0.11
65 | QIKARVRRDLTL | 0.692 ± 0.096
66 | GGAVSRVGEGGR | 0.785 ± 0.02
67 | LRLTCRPWGLFF | 0.6377 ± 0.0051
68 | GGRGGCGCGWVV | 0.682 ± 0.11
69 | YLPRREAALRRV | 0.7118 ± 0.0034
70 | PSPVPPSPPPSP | 0.512 ± 0.083
71 | GGWLGGLGCFMV | 0.708 ± 0.046
72 | SWMDRGGAYSGI | 0.731 ± 0.11
73 | LVRASDPLSVTI | 0.689 ± 0.073
74 | EIEYVEPSIPET | 0.702 ± 0.046
75 | IVNNVKYKNRNR | 0.715 ± 0.071

Row | Sequence | protein stability index
76 | NEEVAKKKKIRV | 0.667 ± 0.061
77 | PVLPPPAPSPPP | 0.678 ± 0.042
78 | FEDWMQGLGKWV | 0.792 ± 0.054
79 | PFPLPPPPFHPP | 0.691 ± 0.014
80 | PLSPPLPPPLSL | 0.681 ± 0.031
81 | GSRVRGVMWSFL | 0.771 ± 0.067
82 | FSSPLLLFHLPV | 0.663 ± 0.04
83 | SMARVWLVWRWK | 0.673 ± 0.035
84 | VWRRCVPGPASP | 0.67 ± 0.0097
85 | SDVCVYVIRDIG | 0.565 ± 0.068
86 | APDRLPLSRCPA | 0.699 ± 0.02
87 | SPPTPPTSICPS | 0.705 ± 0.03
88 | NSQAIKSTARQK | 0.707 ± 0.00054
89 | AQPAPAPALADV | 0.667 ± 0.039
90 | LGLSTLLVPHTR | 0.743 ± 0.028
91 | FDRAVRPSCLLL | 0.6892 ± 0.0062
92 | AIRGGPGGDKEP | 0.682 ± 0.024
93 | RGGGGRGGSEGS | 0.686 ± 0.017
94 | LGFPSFFPNVSV | 0.6946 ± 0.0017
95 | SGSAPFLRTSKL | 0.685 ± 0.061
96 | VIFGCVLSQLDT | 0.705 ± 0.023
97 | VFSLQCVSGIFV | 0.568 ± 0.076
98 | DGALWGTDRGAG | 0.701 ± 0.064
99 | EMTWGSIWPERH | 0.731 ± 0.05
100 | VVSVQHEVIIFL | 0.611 ± 0.05

Row | Sequence | protein stability index
101 | EGGRGYGRGRYG | 0.685 ± 0.051
102 | GGGRRVRRGGGR | 0.678 ± 0.056
103 | PFFLVSPEPLSI | 0.666 ± 0.058
104 | DSPRTFWGPTQK | 0.699 ± 0.055
105 | VEFVSKSLGVGW | 0.6756 ± 0.0053
106 | GLGGYVIKYIMI | 0.572 ± 0.02
107 | SETMFRLVADIT | 0.715 ± 0.011
108 | PPLPPSPPAPPP | 0.629 ± 0.0019
109 | ADRGLVSLAIVG | 0.582 ± 0.015
110 | SMPKMGISGVIY | 0.617 ± 0.051
111 | RITTNQMNIKFI | 0.653 ± 0.02
112 | VESGVREEKCMS | 0.708 ± 0.11
113 | ESVCFRPKCVCK | 0.5929 ± 0.0046
114 | GGVVEGVSLAQC | 0.727 ± 0.049
115 | LLANLRSSIDIQ | 0.709 ± 0.18
116 | WGISRSLRPGEV | 0.739 ± 0.12
117 | RLSARRSVGGSA | 0.7097 ± 0.0051
118 | SPTPPPPAPPPP | 0.645 ± 0.044
119 | GVPLSGLVCPRP | 0.7103 ± 0.001
120 | LVLVSFWWSGPM | 0.526 ± 0.031
121 | FISKHHPLVPPS | 0.719 ± 0.041
122 | LPRRSSRRQYAA | 0.751 ± 0.022
123 | AYCVPPAFPFPL | 0.627 ± 0.044
124 | CFFNAASHSTYE | 0.7032 ± 0.0049
125 | HPLLTPTPHKPD | 0.699 ± 0.11

Row | Sequence | protein stability index
126 | GVGGENRRNGTV | 0.721 ± 0.11
127 | PPWPPYPRPPSS | 0.679 ± 0.053
128 | FICGFRYHTVYR | 0.652 ± 0.043
129 | TTYKRRTSKTLS | 0.679 ± 0.024
130 | KGRRQPSSESVM | 0.711 ± 0.014
131 | VLVRRVFRRRSR | 0.786 ± 0.11
132 | DGCRLCRRFIFG | 0.669 ± 0.013
133 | GDKGLRPNMGLV | 0.645 ± 0.0099
134 | LPGFPPSLLPRL | 0.777 ± 0.059
135 | GVWLRTARRISK | 0.688 ± 0.037
136 | RDSVLSFSALQV | 0.681 ± 0.0097
137 | QEVKLAPEHRLR | 0.675 ± 0.013
138 | PPSLPPPIHLPL | 0.646 ± 0.011
139 | QKKKKNRKQKIK | 0.696 ± 0.017
140 | TKILRGQKRRAA | 0.637 ± 0.1
141 | VGSSLRGWSSRT | 0.804 ± 0.045
142 | VGGWGGVSLGGR | 0.721 ± 0.1
143 | SLFNADPYGFNL | 0.711 ± 0.03
144 | YFLPLLCRSPSL | 0.707 ± 0.0095
145 | WSVGYLSVALYR | 0.615 ± 0.014
146 | LSFAGLPFCPGL | 0.722 ± 0.13
147 | LSFSPSFLPDSP | 0.782 ± 0.062
148 | PRELFGFNLAQP | 0.692 ± 0.011
149 | QRGEGTSQGILT | 0.807 ± 0.13
150 | SVSPLSSSTLTA | 0.65 ± 0.019

Row | Sequence | protein stability index
151 | EFERWCGLGRFG | 0.744 ± 0.096
152 | PPWLPAPFPLPD | 0.695 ± 0.045
153 | VGFGVRTGETVV | 0.685 ± 0.048
154 | GQIACSECGGGG | 0.679 ± 0.027
155 | LAGLNDSVRRAV | 0.749 ± 0.036
156 | SAACQRWGYLRV | 0.68781 ± 0.00045
157 | PLRRRPFAPPPP | 0.535 ± 0.034
158 | YGSSFRLVFSVT | 0.583 ± 0.0074
159 | SSQLKMESLFII | 0.624 ± 0.064
160 | VVPDVGVVTSPA | 0.649 ± 0.072
161 | PHNTPRPELLPP | 0.613 ± 0.11
162 | RPRIPLNSSSLS | 0.74 ± 0.037
163 | PPAHPRPPPPFL | 0.762 ± 0.037
164 | LGVRSGGSWRAG | 0.792 ± 0.064
165 | AHLPSPRPRPPP | 0.764 ± 0.013
166 | INNTKQSENRKS | 0.701 ± 0.054
167 | PAPPPPRRPLPP | 0.657 ± 0.0086
168 | IALPPPLLPPSL | 0.706 ± 0.051
169 | PRLRRVCGQSLV | 0.6664 ± 0.0066
170 | NVRVLKCLWGVG | 0.619 ± 0.029
171 | IKLCRSTVVTGV | 0.592 ± 0.013
172 | CVLVVCRFTGDW | 0.5083 ± 0.0038
173 | FPSSALPPRLSL | 0.7409 ± 0.0072
174 | GVAWGAGVGMMW | 0.732 ± 0.025
175 | LDLAMRQYDLTG | 0.681 ± 0.06

Row | Sequence | protein stability index
176 | GRLFGVVSLCLL | 0.647 ± 0.035
177 | KNCKEQRKTIQI | 0.713 ± 0.026
178 | DFSPSPWQFTCW | 0.692 ± 0.071
179 | CGLGVRGRLVLS | 0.625 ± 0.026
180 | PAPPPPLPLHPR | 0.664 ± 0.046
181 | PPASLRRLLPPP | 0.654 ± 0.0066
182 | HPLPPPLLPSPA | 0.659 ± 0.096
183 | KKEKKIRKKTVT | 0.732 ± 0.028
184 | PPRPPLPRPLPP | 0.657 ± 0.041
185 | GRKQMKINDWNI | 0.636 ± 0.077
186 | LFSPPTFFLFHR | 0.6445 ± 0.0046
187 | VVGYAIRVRSGL | 0.593 ± 0.018
188 | SVEAGHVAERES | 0.732 ± 0.061
189 | GGVVLTWLGENC | 0.717 ± 0.025
190 | PPPPPPPPPPPL | 0.677 ± 0.028
191 | PRPPLPPASPPL | 0.595 ± 0.044
192 | LSTCIMFRSCGG | 0.693 ± 0.041
193 | KVLRKQRLKGRE | 0.5238 ± 0.0015
194 | KGQKIIKNKNPK | 0.644 ± 0.038
195 | APPPNSLPPPPP | 0.72 ± 0.022
196 | PPRPPFPLPSPL | 0.703 ± 0.025
